Measured values published in article PMC3466232, “FUS-NLS/Transportin 1 Complex Structure Provides Insights into the Nuclear Targeting Mechanism of FUS and the Implications in ALS” (PLoS ONE, 2012).
Numbering of substitutions follows the chain as printed. In names and notes the source's numbering stands.

T1: human transportin 1 (Trn1, residues 1-890) (human, UniProt Q92973-2 1-890)
T1 construct: transportin 1 (Trn1), human, full-length, residues 1-890; numbers count on: the 890-residue form; Cloned in pGEX-4T-3 with a TEV site; clone was a gift from Y. M. Chook; source: E. coli BL21 (DE3), purified (glutathione Sepharose, TEV cleavage, HiTrap Q FF, Superdex 200)
T1 sequence (looked up): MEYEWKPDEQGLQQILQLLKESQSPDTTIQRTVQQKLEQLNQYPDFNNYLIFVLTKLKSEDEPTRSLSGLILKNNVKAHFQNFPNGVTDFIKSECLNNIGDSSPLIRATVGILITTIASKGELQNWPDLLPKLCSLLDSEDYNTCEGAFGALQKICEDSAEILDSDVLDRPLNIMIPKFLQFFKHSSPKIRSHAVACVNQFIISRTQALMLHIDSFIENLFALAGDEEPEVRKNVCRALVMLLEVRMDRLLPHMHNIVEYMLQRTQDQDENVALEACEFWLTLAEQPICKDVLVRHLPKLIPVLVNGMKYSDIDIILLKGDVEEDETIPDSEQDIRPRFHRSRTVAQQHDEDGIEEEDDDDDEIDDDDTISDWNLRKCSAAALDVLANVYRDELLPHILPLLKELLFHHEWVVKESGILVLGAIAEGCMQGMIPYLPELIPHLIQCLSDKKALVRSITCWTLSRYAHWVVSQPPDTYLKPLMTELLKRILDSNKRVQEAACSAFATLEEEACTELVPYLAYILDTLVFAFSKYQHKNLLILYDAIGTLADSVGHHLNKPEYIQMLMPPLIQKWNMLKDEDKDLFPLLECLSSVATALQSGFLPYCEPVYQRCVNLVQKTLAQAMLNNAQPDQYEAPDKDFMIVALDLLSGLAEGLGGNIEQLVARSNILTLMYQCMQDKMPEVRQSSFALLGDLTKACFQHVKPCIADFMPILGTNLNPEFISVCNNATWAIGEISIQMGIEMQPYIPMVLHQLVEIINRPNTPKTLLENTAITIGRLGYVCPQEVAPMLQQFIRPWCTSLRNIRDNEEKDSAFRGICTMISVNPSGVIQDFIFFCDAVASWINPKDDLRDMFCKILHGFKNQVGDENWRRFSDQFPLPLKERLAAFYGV

B1: FUS-NLS(P525L) (domain or fragment, human, UniProt P35637 495-526, looked up)
chain: RGGRGGGDRGGFGPGKMDSRGEHRQDRRERLY
notes: ALS-associated mutation found in patients; made by site-directed mutagenesis; not shown: GST, N-terminal, cleaved
B2: FUS-NLS(R514G) (domain or fragment, human, UniProt P35637 495-526, looked up)
chain: B1 chain with R20G, L31P
notes: as for B1
B3: FUS-NLS(K510E) (domain or fragment, human, UniProt P35637 495-526, looked up)
chain: B1 chain with K16E, L31P
notes: as for B1
B4: FUS-NLS(H517P) (domain or fragment, human, UniProt P35637 495-526, looked up)
chain: B1 chain with H23P, L31P
notes: as for B1
B5: FUS-NLS(R522G) (domain or fragment, human, UniProt P35637 495-526, looked up)
chain: B1 chain with R28G, L31P
notes: as for B1
B6: FUS-NLS(R518G) (domain or fragment, human, UniProt P35637 495-526, looked up)
chain: B1 chain with R24G, L31P
notes: as for B1
B7: FUS-NLS(Y526A) (domain or fragment, human, UniProt P35637 495-526, looked up)
chain: B1 chain with L31P, Y32A
notes: Designed from the structure; not found in familial ALS patients; not shown: GST, N-terminal, cleaved
B8: FUS-NLS(E523Y) (domain or fragment, human, UniProt P35637 495-526, looked up)
chain: B1 chain with E29Y, L31P
notes: as for B7
B9: nuclear localization sequence of human FUS (FUS-NLS, residues 495-526), wild type (domain or fragment, UniProt P35637 495-526, looked up)
chain: B1 chain with L31P
notes: Cloned in pGEX-6P-2; also called FUS-NLS(WT); WT; not shown: GST, N-terminal, cleaved
B10: FUS-NLS(G507D) (domain or fragment, human, UniProt P35637 495-526, looked up)
chain: B1 chain with G13D, L31P
notes: as for B1
B11: FUS-NLS(G515C) (domain or fragment, human, UniProt P35637 495-526, looked up)
chain: B1 chain with G21C, L31P
notes: as for B1
B12: FUS-NLS(R524S) (domain or fragment, human, UniProt P35637 495-526, looked up)
chain: B1 chain with R30S, L31P
notes: as for B1
B13: FUS-NLS(R518K) (domain or fragment, human, UniProt P35637 495-526, looked up)
chain: B1 chain with R24K, L31P
notes: as for B1
B14: FUS-NLS(E523S) (domain or fragment, human, UniProt P35637 495-526, looked up)
chain: B1 chain with E29S, L31P
notes: as for B7
B15: FUS-NLS(R521G) (domain or fragment, human, UniProt P35637 495-526, looked up)
chain: B1 chain with R27G, L31P
notes: as for B1
B16: FUS-NLS(S513P) (domain or fragment, human, UniProt P35637 495-526, looked up)
chain: B1 chain with S19P, L31P
notes: as for B1

target: T1, human transportin 1 (Trn1, residues …); assay: SPR; BIAcore 3000, 25°C; Trn1 immobilised on a CM5 chip by amine coupling (about 8600 RU); same running buffer; kd too fast to be fit, KD from steady state equilibrium binding against the concentration of the injected protein; details: both partners purified

For B1, which Kd is on record?
Its Kd is 1200 nM.

How did the Kd turn out when B2 was run?
Its Kd is 67 nM.

How did the Kd turn out when B3 was run?
Its Kd is 150 nM.

For B4, which Kd is on record?
The Kd was 140 nM.

B5 was tested. Which Kd did it give?
Its Kd is 350 nM.

How did the Kd turn out when B6 was run?
The Kd was 150 nM.

For B7, which Kd is on record?
The Kd was 890 nM.

target: T1, human transportin 1 (Trn1, residues …); assay: SPR; BIAcore 3000, 25°C; Trn1 immobilised on a CM5 chip by amine coupling (about 8600 RU); FUS-NLS injected at increasing concentrations, 50 µl/min; 20 mM HEPES pH 7.3, 110 mM potassium acetate, 2 mM magnesium acetate, 2 mM EGTA, 2 mM DTT, 10% glycerol, 0.005% Tween 20; 1:1 Langmuir fit; details: both partners purified

Does B8 bind?
Result: binds

target: T1, human transportin 1 (Trn1, residues …); assay: as above; details: both partners purified; remark: another data set of the same source

What does the source list for B9?
Kd: 1.7 nM; koff: 0.0037 s⁻¹; kon: 2.3e+06 M⁻¹ s⁻¹

How did the Kd turn out when B10 was run?
The Kd was 7.8 nM.

What about the koff of the same binder?
Its koff is 0.044 s⁻¹.

What about the kon of the same binder?
The kon was 5.7e+06 M⁻¹ s⁻¹.

What does the source list for B11?
Kd: 2.8 nM; koff: 0.0051 s⁻¹; kon: 1.8e+06 M⁻¹ s⁻¹

What does the source list for B12?
Kd: 10 nM; koff: 0.058 s⁻¹; kon: 5.6e+06 M⁻¹ s⁻¹

Which results are given for B13?
Kd: 13 nM; koff: 0.078 s⁻¹; kon: 6e+06 M⁻¹ s⁻¹

Which Kd does the source give for B14 here?
The Kd was 2 nM.

What about the koff of the same binder?
Its koff is 1.1e-05 s⁻¹.

And the kon?
The kon was 5500 M⁻¹ s⁻¹.

With B15 as the binder, how does the Kd read?
The Kd was 25 nM.

What about the koff of the same binder?
Its koff is 0.0034 s⁻¹.

And the kon?
Its kon is 140000 M⁻¹ s⁻¹.

Which Kd does the source give for B16 here?
The Kd was 2.4 nM.

What about the koff of the same binder?
Its koff is 0.023 s⁻¹.

What about the kon of the same binder?
Its kon is 9.4e+06 M⁻¹ s⁻¹.
